Patent US6277558
Ends that are not written are not given here.

Target: GP sera of Examples 8 to 11 (anti sera from two GP patients)
Assay: inhibition ELISA: peptide preincubated with GP antibodies for 12 hours, then plates coated with α3 NC1 bovine monomer

B1: α3 carboxy terminal peptide (12 Mer synthetic peptide of human α3(IV) NC1) (peptide)
peptide: ISRCQVCMKKRH
modifications: also: the two cysteines blocked, group not given here
B1 gave a percent inhibition at saturation of 60%.
